# In the RNAGym collection of RNA variant scans (doi:10.7554/elife.80360):
# B1: HDV Ribozyme (parent)
# chain: GGCCGGCAUGGUCCCAGCCUCCUCGCUGGCGCCGGCUGGGCAACAUUCCGAGGGGACCGUCCCCUCGGUAAUGGCGAAUGGGACCCA
# Variants of: B1
# Test: self-cleavage, relative activity (ratio to wild type); higher = more cleavage; co-transcriptional
row,Variant,self-cleavage
1,G25C U60C,0.0504
2,C7A G11A,0.0674
3,G17C G73C,0.0875
4,C44U C61A,0.751
5,G5C U46G,0.0573
6,U47G G52A,0.978
7,G28A U72G,0.107
8,C62G C66U,0.554
9,C33G U46A,0
10,C19A G76A,0.185
11,A16G C64U,0.942
12,G54U A83U,0.446
13,C75A A77G,0.0875
14,G35C G40A,0.271
15,U23G G80U,0.129
16,U9C C14U,1.11
17,C66G A71G,1.05
18,U12G A77C,0
19,C4G U9A,0.534
20,G59C A87U,0.981
21,C48G C49A,0.808
22,G39A G67U,0.351
23,A56C G81A,0.415
24,G67C G74C,0.123

row,Variant,self-cleavage
1,G5A C15U,0.0475
2,C7U G55C,0.736
3,G59C U60A,1.09
4,C41U C85G,0.911
5,G5A G11U,0.0665
6,G5A U20G,0.185
7,G25U G34U,0.026
8,A16C G52U,0.643
9,A8G U12G,0.712
10,C26G A45U,0.895
11,G5A C21U,0.163
12,G2A G74U,0.073
13,C32A C86U,0.147
14,G1C U47A,0.256
15,G67C A70G,0.712
16,G52U C62G,0.106
17,C19U A43U,0.104
18,G10A A51U,0.923
19,C44G C58U,0.751
20,C14A G50C,0.639
21,U12C A70G,0.692
22,C48G C86G,1.11
23,G35U C48U,0.554
24,G6U C58A,0.672

row,Variant,self-cleavage
1,G67C C75G,0.0475
2,C13A C14G,0.0978
3,C26U C85U,0.935
4,G35A G80C,0.162
5,G53A C75A,0.225
6,G38A C61G,0.138
7,U60G,0.978
8,C26A C64G,0.95
9,C3G A43G,0.125
10,C32G C57U,0.0702
11,G55C C85A,0.752
12,G25A G28U,0.0185
13,A56C C85U,1.01
14,A45C C48U,0.642
15,U37C A42U,0.295
16,G28A U79C,0.0542
17,C21U G67U,0.174
18,A51G C85G,0.984
19,U12A G34A,0.0378
20,G53U A71C,0.538
21,A51G G55U,1.06
22,G11A G38U,0
23,A56G G80C,0.259
24,C13A C86U,0.242

row,Variant,self-cleavage
1,U12A G82A,0.0489
2,G10C C32G,0.0773
3,G2C C57U,0.073
4,G34U C62A,0.0831
5,G28A G52C,0.0773
6,G74A A77U,0.267
7,C26A A45U,1.19
8,C14U C64G,1.24
9,G1U A8U,0.388
10,G1C A78U,0.0755
11,C14G U60C,0.443
12,A16C G31C,0.0639
13,C61A A70U,1.17
14,C4G G67A,0.437
15,G25A C48U,0.264
16,C18G C75U,0.0615
17,C15G G52A,0.807
18,U9A U37A,0
19,U12C G54C,0.356
20,A45G G81U,0.208
21,U23A U69G,0.911
22,G2C G67C,0.113
23,G76A G81C,0.302
24,U9G A45C,0.712

row,Variant,self-cleavage
1,C18A G52U,0.237
2,G53C C86U,0.799
3,C24G C57G,0.192
4,G5U U12A,0.332
5,G39U A45G,0.743
6,C26G G28A,0.0449
7,A8U G17U,0.18
8,C4G C66G,0.727
9,G38A C62G,0.298
10,U12C A77G,0.302
11,G28A C84U,0.0744
12,C7G G40C,0
13,C14A C15U,0.192
14,C30A A70U,0.62
15,G55C C57G,1.14
16,C58G G68U,0.959
17,A16C A42C,0.192
18,C44A U69G,0.609
19,G53A A87U,0.992
20,U46C C75U,0.0755
21,A43G C44U,0.884
22,G1U C75G,0.162
23,C14G G17A,0.123
24,A16U C24U,0.314

row,Variant,self-cleavage
1,G31C U69G,0.394
2,C7G C33U,0
3,A45C U79A,0.208
4,C4U A16U,0.462
5,C26G G67C,0.8
6,C57A U79A,0.806
7,G38A C84U,0.109
8,C24G G52A,0.123
9,C33G C41G,0.111
10,G1A A71U,0.256
11,A71U G81A,0.277
12,U37G C84U,0.111
13,G28U C64G,0.102
14,A8G U72G,0.536
15,G39U G67A,0.698
16,G39U A42C,0.237
17,C33G C62U,0.259
18,G25C U65A,0.155
19,G11C C30U,0.0604
20,C7G C61G,0.287
21,C41U G52C,0.819
22,C19A G34C,0.0739
23,C7G G39C,0
24,G2A A56C,0.148

row,Variant,self-cleavage
1,G52A G54C,0.842
2,C24U G68A,0.831
3,C19A U65G,0.189
4,C22U C84A,0.408
5,C3A G55C,0.642
6,G28U G82C,0.0272
7,C44G G50C,0.739
8,C30A C86A,0.591
9,A51G U65G,0.682
10,G53U A70C,0.774
11,G52C U65C,1.18
12,C30G C61U,0.026
13,G1C A87G,0.0712
14,G55U G82A,0.467
15,C32A A87U,0.183
16,G52U G74U,0.629
17,U46A G55C,0.682
18,G6U G38C,0.095
19,G5A G67A,0.125
20,C30U A43U,0.0652
21,G5A G53U,0.309
22,G25C G34A,0.143
23,U12G U79G,0.639
